Patent US20250382363A1 (NUMAB THERAPEUTICS, published 2025)
Where a chain is given by its changes, count along the chain named. Numbers in names are those of the source.

B1: PRO3313 (scFv 37-20-B03-sc09.1_(T101S, T146R)) (scFv)
scFv: DIQMTQSPASLSASVGDRVTITCQASQSIGTYLAWYQQKPGKPPKLLIYRAFILASGVPSRFSGSGSGTDFTLTISSLQPEDFATYYCQSNFYSDSTTIGPNAFGTGTKVTVLGGGGGSGGGGSGGGGSGGGGSEVQLVESGGGLVQPGGSLRLSCAASGFSFNSDYWIYWVRQAPGKGLEWIASIYGGSSGNTQYASWAQGRFTISRDNSKNTVYLQMNSLRAEDSAVYFCARGYVDYGGATDLWGQGTLVRVSS
notes: PRO2230 variant; VH substitutions, AHo numbering; also called PRO2230 T101S-T146R
B2: PRO3341 (scFv 37-20-B03-sc09.1_(T101S, T146S)) (scFv)
scFv: B1 scFv with R253S
notes: PRO2230 variant; VH substitutions, AHo numbering; also called PRO2230 T101S-T146S
B3: PRO3342 (scFv 37-20-B03-sc09.1_(T101K, T146D)) (scFv)
scFv: B1 scFv with S227K, R253D
notes: PRO2230 variant; VH substitutions, AHo numbering; also called PRO2230 T101K-T146D
B4: PRO3339 (scFv 37-20-B03-sc09.1_(T101N, T146Q)) (scFv)
scFv: B1 scFv with S227N, R253Q
notes: PRO2230 variant; VH substitutions, AHo numbering; also called PRO2230 T101N-T146Q
B5: PRO3343 (scFv 37-20-B03-sc09.1_(T101R, T146E)) (scFv)
scFv: B1 scFv with S227R, R253E
notes: PRO2230 variant; VH substitutions, AHo numbering; also called PRO2230 T101R-T146E
B6: PRO3317 (scFv 37-20-B03-sc09.1_(T101Q)) (scFv)
scFv: B1 scFv with S227Q, R253T
notes: PRO2230 variant; VH substitution, AHo numbering; also called PRO2230 T101Q
B7: PRO3340 (scFv 37-20-B03-sc09.1_(T101S, T146K)) (scFv)
scFv: B1 scFv with R253K
notes: PRO2230 variant; VH substitutions, AHo numbering; also called PRO2230 T101S-T146K
B8: PRO3314 (scFv 37-20-B03-sc09.1_(T101Q, T146Q)) (scFv)
scFv: B1 scFv with S227Q, R253Q
notes: PRO2230 variant; VH substitutions, AHo numbering; also called PRO2230 T101Q-T146Q
B9: PRO3338 (scFv 37-20-B03-sc09.1_(T101K, T146Q)) (scFv)
scFv: B1 scFv with S227K, R253Q
notes: PRO2230 variant; VH substitutions, AHo numbering; also called PRO2230 T101K-T146Q
B10: PRO1922 (scFv 54-21-H03-sc01) (scFv)
scFv: DIQMTQSPSSLSASVGDRVTITCQASESIYSSLAWYQQKPGKAPKLLIYLASTLASGVPSRFSGSGSGTDFTLTISSLQPEDFATYYCQSTDYTTSTHRNSFGTGTKVTVLGGGGGSGGGGSGGGGSGGGGSEVQLVESGGGLVQPGGSLRLSCAASGFSFSTTYYMCWVRQAPGKGLEWIGCTNTASSVRTYYATWAKGRFTISRDNSKNTVYLQMNSLRAEDTAVYYCARDMGFADYALNLWGQGTLVTVSS
notes: also called PRO1922 wt; a-MSLN wt
B11: PRO2991 (scFv 54-21-H03-sc01_(T101A)) (scFv)
scFv: B10 scFv with T225A
notes: PRO1922 variant; VH substitution, AHo numbering; also called PRO1922 T101A
B12: PRO2945 (scFv 54-21-H03-sc01_(T101R)) (scFv)
scFv: B10 scFv with T225R
notes: PRO1922 variant; VH substitution, AHo numbering; also called PRO1922 T101R
B13: PRO2937 (scFv 54-21-H03-sc01_(T101S, L144A, T146Q)) (scFv)
scFv: B10 scFv with T225S, L249A, T251Q
notes: PRO1922 variant; VH substitutions, AHo numbering; also called PRO1922 T101S-L144A-T146Q
B14: PRO2930 (scFv 54-21-H03-sc01_(L144K, T146E, S148K)) (scFv)
scFv: B10 scFv with L249K, T251E, S253K
notes: PRO1922 variant; VH substitutions, AHo numbering; also called PRO1922 L144K-T146E-S148K
B15: PRO2990 (scFv 54-21-H03-sc01_(L12S, V103T, L144T)) (scFv)
scFv: B10 scFv with L143S, V227T, L249T
notes: VH substitutions, AHo numbering; also called PRO1922-L12S-V103T-L144T
B16: PRO2938 (scFv 54-21-H03-sc01_(L12A, T101S, L144A, T146Q)) (scFv)
scFv: B10 scFv with L143A, T225S, L249A, T251Q
notes: PRO1922 variant; VH substitutions, AHo numbering; also called PRO1922 L12A-T101S-L144A-T146Q
B17: PRO2932 (scFv 54-21-H03-sc01_(L144A, S148N)) (scFv)
scFv: B10 scFv with L249A, S253N
notes: PRO1922 variant; VH substitutions, AHo numbering; also called PRO1922 L144A-S148N
B18: PRO2931 (scFv 54-21-H03-sc01_(L144K, S148L)) (scFv)
scFv: B10 scFv with L249K, S253L
notes: PRO1922 variant; VH substitutions, AHo numbering; also called PRO1922 L144K-S148L
B19: PRO2941 (scFv 54-21-H03-sc01_(T146K)) (scFv)
scFv: B10 scFv with T251K
notes: PRO1922 variant; VH substitution, AHo numbering; also called PRO1922 T146K
B20: PRO2918 (scFv 54-21-H03-sc01_(L12R, V103T, L144Q)) (scFv)
scFv: B10 scFv with L143R, V227T, L249Q
notes: VH substitutions, AHo numbering; also called PRO1922-L12R-V103T-L144Q
B21: PRO2942 (scFv 54-21-H03-sc01_(T146R)) (scFv)
scFv: B10 scFv with T251R
notes: PRO1922 variant; VH substitution, AHo numbering; also called PRO1922 T146R
B22: PRO2944 (scFv 54-21-H03-sc01_(T146Q)) (scFv)
scFv: B10 scFv with T251Q
notes: PRO1922 variant; VH substitution, AHo numbering; also called PRO1922 T146Q
B23: PRO2946 (scFv 54-21-H03-sc01_(T101S)) (scFv)
scFv: B10 scFv with T225S
notes: PRO1922 variant; VH substitution, AHo numbering; also called PRO1922 T101S
B24: PRO2943 (scFv 54-21-H03-sc01_(T146E)) (scFv)
scFv: B10 scFv with T251E
notes: PRO1922 variant; VH substitution, AHo numbering; also called PRO1922 T146E
B25: PRO2936 (scFv 54-21-H03-sc01_(T101S, T146Q)) (scFv)
scFv: B10 scFv with T225S, T251Q
notes: PRO1922 variant; VH substitutions, AHo numbering; also called PRO1922 T101S-T146Q

target: T1, human a-PD-L1 Fc (Sino Biological, 10084-H02H, LC11NO2402) (human, UniProt Q9NZQ7 19-239); test: SPR, PD-L1 Fc immobilised, scFv analyte, 1:1 fit
T1 construct: Bought Fc fusion immobilised on the SPR chip; Printed as 'a-PD-L1 Fc' but used as the antigen (ligand) for the anti-PD-L1 scFvs; also called Human PD-L1; not shown: Fc part
T1 sequence (Q9NZQ7 19-239 limits assumed): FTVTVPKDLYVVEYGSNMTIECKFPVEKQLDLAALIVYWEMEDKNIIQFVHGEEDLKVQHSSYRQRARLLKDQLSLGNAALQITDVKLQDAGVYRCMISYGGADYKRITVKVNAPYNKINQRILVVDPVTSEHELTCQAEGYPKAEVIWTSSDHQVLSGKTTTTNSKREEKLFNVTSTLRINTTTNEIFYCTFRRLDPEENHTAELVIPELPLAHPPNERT
Protocol: (§1) The mutation variants were then injected at concentrations of 10 nM, 2 nM and 0.4 nM over the ligand-immobilized and reference spots. The wild type variants were used as a control, while an empty spot was used as reference.
(§2) After each cycle with analyte, the surface was regenerated with a 3M MgCl₂ solution, thereby allowing the next analyte cycle to have only free ligand available. Binding affinity KD was globally calculated by the Bruker SPR software based on the binding association (kₒₙ) and dissociation (Koff) rate, by fitting a 1:1 Langmuir model to the curves obtained by the cycles with the three different concentrations of the analyte.

Binder | Kd [nM] | n-fold to wt [fold]
B1 | 0.014 | 0.3
B2 | 0.051 | 1
B3 | 0.038 | 0.8
B4 | 0.035 | 0.7
B5 | 0.029 | 0.6
B6 | 0.042 | 0.9
B7 | 0.056 | 1.1
B8 | 0.027 | 0.6
B9 | 0.021 | 0.4

target: T2, human a-Mesothelin (Acro Biosystems; MSN_H5223) (human, UniProt Q13421 296-580, limits assumed); test: SPR, mesothelin immobilised, scFv analyte, 1:1 fit
T2 construct: Bought protein immobilised on the SPR chip; Printed as 'a-Mesothelin' but used as the antigen for the anti-MSLN scFvs; also called Human MSLN; MSLN
T2 sequence (Q13421 other isoform, or with tags, fused parts or gaps limits assumed): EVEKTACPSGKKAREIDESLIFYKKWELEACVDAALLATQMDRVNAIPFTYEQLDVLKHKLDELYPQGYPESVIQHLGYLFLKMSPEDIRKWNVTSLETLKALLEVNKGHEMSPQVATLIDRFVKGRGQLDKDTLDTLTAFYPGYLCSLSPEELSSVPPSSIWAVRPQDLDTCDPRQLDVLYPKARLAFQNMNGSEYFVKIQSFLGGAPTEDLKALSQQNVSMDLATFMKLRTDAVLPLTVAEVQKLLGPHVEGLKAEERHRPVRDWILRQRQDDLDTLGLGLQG
Protocol: as §1, §2

Binder | Kd [nM] | n-fold to wt [fold]
B10 | 1.8 | 1
B11 | 2.9 | 1.6
B12 | 3 | 1.7
B13 | 1.9 | 1.1
B14 | 1.3 | 0.7
B15 | 1.5 | 0.8
B16 | 1.6 | 0.9
B17 | 2.1 | 1.2
B18 | 1.4 | 0.8
B19 | 1.9 | 1.1
B20 | 2.4 | 1.3
B21 | 1.3 | 0.7
B22 | 1.8 | 1
B23 | 3.2 | 1.8
B24 | 3.3 | 1.8
B25 | 0.66 | 0.4

target: pre-existing anti-drug antibodies (ADA) present in human sera; test: pre-existing ADA ELISA, scFv coated, human sera unspiked vs spiked

Binder | Mean No of serum samples >30% inhibition (30% CCP) with SCP (serum samples) | No of serum samples >30% inhibition (30% CCP) without SCP (serum samples)
B10 | 8 | 16
B11 | 0 | 0
B12 | 0 | 0
B13 | 0 | 5
B14 | 0 | 0
B15 | 4 | 5
B16 | 0 | 0
B17 | 1 | 5
B18 | 1 | 6
B19 | 0 | 0
B20 | 3 | 5
B21 | 1 | 6
B22 | 3 | 3
B23 | 6 | 9
B24 | 2 | 4
B25 | 1 | 4
B1 | 1 | 5
B2 | 0 | 4
B3 | 0 | 1
B4 | 0 | 0
B5 | 0 | 0
B6 | 1 | 7
B7 | 0 | 2
B8 | 1 | 4
B9 | 0 | 0
